Laboratory results taken from a protein production outcome set (Wang et al. 2014).

Assay: label from the status in PepcDB records
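Note: failed if final PepcDB status was selected cloned or expressed and not failed if soluble or beyond.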

| Sequence | protein production |
| --- | --- |
| MSLSEYRRKRSFDKTREPEPGKTLPPGQRAIFVVQLHHASRRHYDFRLQVGDALKSWAVPKGPSYDPKVKRMAVEVEDHPVDYASFEGEIPRGEYGGGHVAQFDHGVWATAGDPEAQLAKGHLRFELFGNKLKGGWHLVRSGKPARQPQWLLFKEDDAYAGTLEADDLLADVAATPADDVRRAGAGKTQRKGLTTVPPPAAKKRGTWAKQALALSGARRAEMEDAPFAPQLAKLVQSPPEGAQWLHEIKWDGYRILATVTNGKVRLWSRNALEWTDKTPEIADAIQSLGLRNAQIDGELIAGRGTKEDFNLLQATLSGERQVPLALAVFDLLHVDGVDISEAPLRERKQLLQQVLQAAPHMHLAYSSHVEGDGTEAFRVAGEQHFEGIISKRADRPYRDGRSDDWRKTKQLASQEYAVVGYTAPKGSRSGFGSLLLATPDPVHGWLYVGRVGSGFSDALMREVTQQLEGGGRKPTAHIPTPDTDLRGATWFAPRFVVEVFYRGIGGQQLLRQASFKALRPDKRIADLADSDAGNGRSTSSSTQRSAKTRAAKNAATQVAKRAATRATAPARKSAVATPSSAALPTLSSPTKLIYPDIRATKGDVWDYYQAVMDHLLPQIVGRPLSIIRCPSGAEKPCFFQKHHTAGLERVSSVKLTEETGTNAYYLVIEDAPGLLELVQFNALEFHPWGSHADRPDVADRVVFDLDPGPDVPFAEVKRAANDIRKLLAQLELESFLRVSGGKGLHVVVPLNPGCDWEVTKRFAKGFADALAQAEPQRFIATATKRLRNKRIFVDYLRNGRGATAVASYPLRGRPGAPVALPLAWSDLSKLQRADAFTLRDVPEKLRRRRKDPWADMDRIRQNLARWAEQDED | failed |
| MSNEDSLPPFTLFGLDDVENYGLVTEADNSLPLDIHNQVFQLVEKGNQSFKESRFEEAISSYSKANSIKPLDPIVLGNRSAAYIRFGQYLKQRSASISEYKPLNGFDMSMLGELALKDADKLMSLQSSLVKSYITKACALMLLERYEVARDTILSGLQIDPFSGPLRSNLQELEKVMPNSMRKTHGMAERSDDFDCTVCLKLLYEPATTPCGHTFCRSCLFQSMDRGNKCPLCRTVIFMTPRTCAVSVTLNNIIEKNFPEEYAERKSEQDTLVHLGNESMPLFVMDVIIPCQKLSLHIFEPRYRLMVRRIMEGNHRMGMVALDSATGSPVDVACEVEITECDPLPDGRFVLELESHRRCRIVKAWDQDGYRVAEVEWVKDIPPQSEQGKADLRELTTSAASFARSWLDRAKEAARQGDRRRLEILLNVESMIPTPQDPERFSFWLATLTDRRPSERLELLRLQDTGEVLDYRLVQIARQISLFHQSLSFDC | failed |
| MNKQSAAVLMVMGSALSLQFGAAIGTQLFPLNGPWAVTSLRLFIAGLIMCLVIRPRLRSWTKKQWIAVLLLGLSLGGMNSLFYASIELIPLGTAVTIEFLGPLIFSAVLARTLKNGLCVALAFLGMALLGIDSLSGETLDPLGVIFAAVAGIFWVCYILASKKIGQLIPGTSGLAVALIIGAVAVFPLGATHMGPIFQTPTLLILALGTALLGSLIPYSLELSALRRLPAPIFSILLSLEPAFAAAVGWILLDQTPTALKWAAIILVIAASIGVTWEPKKMLVDAPLHSKCNAKRRVHTPS | failed |
| MAKRTPSIDTKNLTAVQLMELDACVRCGECVKWCPTYAASGGKPGLAPRDKILRWRQYMNKSYGLKAKLFGPQEVSPSELEEFKDDVHGCTTCGVCATVCEAGINTVEIWEAIRTNLVKKGIGPYGKQSAFPKLVGQYHNPYMKDQKDRLAWVPPDVKIEDKADIVYFTGCTAGYNQLALAFATSRVLNKLGIKFAMLGEEEWCCGSALIRTGQVHVDDVARELARHNVEALQKKGAKKVLFACAGCFRAAKIDWPRLLGKELPFEVIHITQFLADLIQADKIKWEKPINKTITYHDPCHLGRHVGVFNAPRYVLSHIPGVKFVEMDRSKEFQRCCGAGGGVKAGMPDLAVAMGESRVKDALETNADILSSACPFCKRNLSDGRDALKSDIVVEDIIELVAEALGLSTS | failed |
| MTPHATPAPRVSAIVSLYNAERFVRGCLDDLLGQTLADSLEIIVIDACSPQGEGAIVQDYMRDHPNIVYVRTDEREGVYASWNRGVRLARAPYVTNANADDRHREDALERLAAALDEAPEAGFAYGDCRVGQTENERYADNAGQRVMRFPDFFAPATLLYCQLGPQPLWRRSVHDVVGFFDESYRACADWDFDIRLAAAFRGIHVPDALGLYLEHEAAITFRDDTMTRENDRVQRQWQHPEAVEERYRAAGVPCHTAEERALVHFDMALRALRFYPPWCYGAPAHNPGFARRCLRHALRLAPALAPAKELLALPDAVLTALDDLPSPLGLPSQATLAGVAAPLEHHHHHH | failed |
| MIESMIIAGGMLVALLYMTACSDKLDVQQMYEFDLATLPVQTTIVKGEEAEIRCQLVRSGEYQDTKYFIRYFQPTGKGELRMENGTVLLPNDLYLLPEETFRLYYRSFGTDQQKIDIYILDSFGQVVQKSFAFNNLEHHHHHH | failed |
| MINDIILLLFVKIKRRLMMDKLFKLKENGTDVRTEVLAGLTTFFAMSYILFVNPQILSQTGMPAQGVFLATIIGAVAGTLMMAFYANLPYAQAPGMGLNAFFTFTVVFGLGYSWQEALAMVFICGIISLIITLTNVRKMIIESIPNALRSAISAGIGVFLAYVGIKNAGLLKFTIDPGNYTVVGEGADKAQATIAANSSAVPGLVSFNNPAVLVALAGLAITIFFVIKGIKGGIILSILTTTVLAIAVGLVDLSSIDFANNHVGAAFEDLKTIFGAALGSEGLGALVSDTARLPETLMAILAFSLTDIFDTIGTLIGTGEKVGIVATNGENHQSAKLDKALYSDLIGTTVGAIAGTSNVTTYVESAAGIGAGGRTGLTALVVAICFAISSFFSPLLAIVPTAATAPILIIVGIMMLGSLKNIHWDDMSEAVPAFFTSIFMGFSYSITQGIAVGFLTYTLTKLVKGQVKDVHVMIWILDALFILNYISMAL | failed |
| AEICLITGTPGSGKTLKMVSMMANDEMFKPDENGIRRKVFTNIKGLKIPHTYIETDAKKLPKSTDEQLSAHDMYEWIKKPENIGSIVIVDEAQDVWPARSAGSKIPENVQWLNTHRHQGIDIFVLTQGPKLLDQNLRTLVRKHYHIASNKMGMRTLLEWKICADDPVKMASSAFSSIYTLDKKVYDLYESAEVHTVNKVKRSK | not failed |
| MTAAPGTSMATPHVAGIAALLLQAHPSWTPDKVKTALIETADIVKPDEIADIAYGAGRVNAYKAINYDNYAKLVFTGYVANKGSQTHQFVISGASFVTATLYWDNANSDLDLYLYDPNGNQVDYSYTAYYGFEKVGYYNPTDGTWTIKVVSYSGSANYQVDVVSDGSLSQLEHHHHHH | not failed |
| MTSASAALPQQPGRTKAFLRLVMIEHSVFALPFAYIAALTAMFQWDRNIHWVRLLLVTVAMVGLRTFAMAANRIIDREIDARNPRTAHRELVTGAMSVRHAWTGALVALVFFLGAAALLNPLCLALAPIAVIPMVVYPYGKRFTNFPQAILGLAQAMGPVGGWLAISGEWSWDAVILGLAVGVWIGGFDLIYACQDVETDREVGVMSVPARFGIQAAIWGARVCHAITTALLVWYAFATDAGAFFWFGLVIVAGAFLYEHSIVKPHDLSRLNRAFFSTNGFIGISLFVCALGDLLVRGLTV | failed |
| MLTAFTAGLLLITVSELGDKTFFIAMILAMRYPRRWVLVGVVGGLAAMTILSVLMGQIFTFLPTRYINYAEVALFLIFGTKLLWDARRIKATANLEEMEDAEKAIASGEKKLKIVPRGWGIVVESFALTFVAEWGDRTQIATIALAASNNAWGVSAGAILGHTICAVIAVMGGKFVAGRISEKTVTLIGGLLFYLFAVVSWWTKIA | failed |
| MSELARIVPDSEKISHILIEQGRKITFYSYFSNTFVLGIIAYILVDNTVALDKNSLFFVKTLPFRKKDISLSFMLFKFVIMILLYELVMIISTPAIKLVTTVPIEYVIFFIVQHLFYLVVIGVIEFIHCLFTFFLKRRVKQINSLKVIGDSLLMIFATFYFFDFRYGLELFLANQLWSISYMIPITFFLIVVCLMLISIGLLRLISILENQMSQHSKYIYIPFLNKVIFRYKANWYFISFTTVVMLVIFFQSGLRTMLFILTTVMAFSGVLLLSYGDITADFRKQYDLLRIKIRNEWLSQLLLVIMLAMPLLLLCFWGFGELAQLITALSLSLVAIILGYVFPKSQGSLNETTSLLLLFIVFVLVSLLTNRSFGWLILIVLVLLHLLVIKKVRNEKE | failed |
